Reference: patent US9724388B2, “FGF-18 compound dosing regimen” (MERCK PATENT GMBH, priority 2014, dated 2017)
Like-named read-outs stand apart in the source and are kept apart here.

Assays:
[1] = test system: medial meniscal tear in the right knee joint; assay type: in vivo, rat; conditions: for overall morphology: three injections
Procedure: After the sacrifice, the right knee was removed and decalcified in 5% formic acid for 4-6 d before cutting in half in the frontal plane and embedding in paraffin wax. Three sections were cut in 200 μm steps, stained with toluidine blue, and analyzed using ImagePro PIus™ software (Media Cybernetics). In scoring the three sections of the joint, the worst-case scenario for the two halves on each slide was determined for the cartilage lesion as the cartilage degeneration width (μm). This reflects the areas of tibial cartilage lesion in which both chondrocyte and proteoglycan loss extend ≧50% of the cartilage thickness. The measurement was taken over the area of greatest lesion severity in each of the three zones across the tibial surface.
A treatment group Mean±SE for each score and measurement was determined.
Data was analyzed using a one-way analysis of variance (1-way ANOVA) or Kruskal-Wallis test (non-parametric), along with an appropriate multiple comparison post-test. Right knee caliper measurements were compared to left using a Student's t-test. Unless indicated, Bolder BioPATH, Inc. performs statistical analysis on raw (untransformed) data only. […] Significance for all tests was set at p≦0.05. Comparisons were made between each group and the vehicle control group, as well as between pairs.
Male Lewis rats underwent surgery (under anesthesia with isoflurane) to induce a medial meniscal tear in the right knee joint. Animals were dosed IA with vehicle or FGF-18 on one of two different regimens (see table below), then terminated on day 105. Knees had caliper measurements taken at baseline and days 21, 42, 56, 84, and 105. Serum was evaluated for α2macroglobulin levels at baseline and on days 21, and 105, as well as one week after the final dose (day 42 or 84). Right knees were collected for histopathology evaluation.

[2] = test system: full-thickness defect in the articular cartilage of the trochlear groove; assay type: in vivo, rabbit; conditions: for ICRS gross cartilage score: mean +/- SE
From the text: 60 adult male, naïve, New Zealand White rabbits were used for this study. Animals were approximately 3-4 months of age. Rabbits underwent for creation of the cartilage defect in the right knee. A 2 mm by 6 mm full-thickness defect was made in the articular cartilage of the trochlear groove. The microfracture was created using 18 gauge needles; two 3 mm deep microfractures were made through the subchondral bone at the base of the defect, one proximally and one distally. Each microfracture hole was approximately 1.5 mm in diameter and the holes separated by 2 mm. The experiment consisted of the following six treatment groups, with 10 animals in each group for a total of 60 rabbits (Table 2). Rabbits in Groups 3, 4, 5 and 6 were treated with intra-articular rhFGF-18 in either one cycle of three weekly injections of 100 μg of rhFGF-18 (Group 3 and 5) or one cycle of three monthly injections 100 μg of rhFGF-18 (Group 4 and 6). All animals were euthanized and necropsied 6 months after surgery. [table]

[3] = test system: Primary articular porcine chondrocytes; test: Porcine chondrocyte proliferation with or without IL1α challenge; assay type: cell-based, pig; conditions: 100 ng/mL, 8 days
Procedure: Porcine chondrocytes were isolated from the cartilage of a femoral head of a pig hip (pigs were approximately one year old). After dissection of the joints, the cartilage was harvested and digested 45 minutes with collagenase 0.25% (1/10 dilution of collagenase NBG4 2.5% in HAM's F12) at room temperature. The loosened cells were discarded and the cartilage further digested overnight with collagenase 0.1% (1/25 dilution of collagenase NBG4 2.5% in HAM's F12) at 37° C. to extract the chondrocytes. For this study, the chondrocytes were cultured in monolayer.
Primary articular porcine chondrocytes were stimulated or not with 10 ng/mL IL1α and were either treated immediately or 6 hours later with anakinra 100 ng/mL and/or trFGF-18 100 ng/mL. Each condition was performed in 4 or 6-plicates. As a control, cells were also cultured with anakinra alone, trFGF-18 alone or in the absence of any treatment (medium).
Pre-culture: After cell isolation porcine chondrocytes were inoculated at 20,000 cells/cm^2 and cultivated for one week in complete HAM's F12. Cells were then harvested with accutase, counted and used as described below.
For cells treated directly with anakinra: Chondrocytes were inoculated in a 24-well plate at 15,000 cells/well in 0.5 mL of complete HAM's F12. Then 0.25 mL of trFGF-18 400 ng/mL and/or 0.25 mL of anakinra 400 ng/mL were added to the cells. In the challenged samples, 10 μL of IL1α at 1,000 ng/mL were also added to the cells. trFGF-18, anakinra and IL1α were all diluted in complete HAM's F12. The final volume in the culture well was adjusted at 1 mL with complete HAM's F12. Final concentrations were 10 ng/mL IL1α, 100 ng/mL trFGF-18 and 100 ng/mL anakinra and the total culture time was eight days. A complete medium change was performed after four days. N=4.
For cells treated with anakinra and trFGF-18 6 hours after the IL1α challenge: Chondrocytes were inoculated in a 24-well plate at 15,000 cells/well in 1 mL of complete HAM's F12 containing or not containing IL1α 10 ng/mL. After 6 hours the medium was removed and replaced with 0.25 mL trFGF-18 400 ng/mL and/or 0.25 mL of anakinra 400 ng/mL. In the challenged samples, 0.25 mL of IL1α at 40 ng/mL was also added to the cells. trFGF-18, anakinra and IL1α were all diluted in complete HAM's F12. The final volume in the culture well was adjusted at 1 mL with complete HAM's F12. Final concentrations were 10 ng/mL IL1α, 100 ng/mL trFGF-18 and 100 ng/mL anakinra and the total culture time was eight days. A complete medium change was performed after four days. N=6.
After eight days of culture, cells were harvested with accutase and resulting cell suspensions were analyzed for cell concentration and cell viability with a ViCell™ cell analyzer (from Beckman Coulter). Statistical analysis consisted in a 1-way ANOVA followed by a Dunnett post-hoc analysis.

[4] = in vivo; cited from earlier work
[5] = Group 4: no microfracture, 100 μg monthly x3
[6] = Group 6: microfracture, 100 μg monthly x3
[7] = microfracture, monthly for three months, non-significant
[8] = microfracture, monthly for three months, significant
[9] = microfracture, weekly for three weeks, significant
[10] = no microfracture, monthly for three months, non-significant
[11] = no microfracture, monthly for three months, significant

B1: trFGF-18: recombinant truncated form of human FGF-18 (170 amino acids, SEQ ID NO: 2), produced in E. coli (protein)
chain: MEENVDFRIHVENQTRARDDVSRKQLRLYQLYSRTSGKHIQVLGRRISARGEDGDKYAQLLVETDTFGSQVRIKGKETEFYLCMNRKGKLVGKPDGTSKECVFIEKVLENNYTALMSAKYSGWYVGFTKKGRPRKGPKTRENQQDVHFMKRYPKGQPELQKPFKYTTVTK
modifications: Recombinant truncated FGF-18(trFGF-18)
In the case of B1, the “extent of injury over the tibial surface (histopathology), particularly collagen damage” value ([1]; 10 μg IA, all regimens) is reported as “generally increased”, the “severity of injury over the tibial surface (histopathology)” value ([1]; 10 μg IA, all regimens) is reported as “reducing its severity” and the structural benefit ([1]; bi-weekly injection scheme, 10 μg IA) is reported as “provides interesting structural benefits”. The “structural benefit (joint scores, tibial cartilage degeneration width; FIGS. 3, 4, 5)” value ([1]; monthly injection scheme, 10 μg IA) was “highest”, the “side effects of treatment (histopathology)” value ([1]; rat, in vivo) was “cartilage hypertrophy, synovitis, and synovial fibrosis” and the “swelling in the treated knee” value ([1]; rat, in vivo) was “significantly increased”. For the same molecule, the overall morphology ([1]; once every 2 weeks (days 21, 35, 49)) was “good overall morphology”, the overall morphology ([1]; once monthly (days 21, 49, 77)) was “best overall morphology” and the ICRS cartilage score [2, 5] was 2.1+/−0.3. For the same molecule, the “animals with intercondylar groove filled with cartilage (nearly normal to slightly roughened or granular)” value [2, 5] was 6/9, the “ICRS gross cartilage score” value ([2]; Group 5: microfracture, 100 μg weekly x3) was 1.9+/−0.3 and the “animals with groove 50% filled up to nearly completely filled with granular to coarsely granular cartilage” value [2, 6] was 7/10. For the same molecule, the “animals with intercondylar groove filled with cartilage” value [2, 6] was 3/10, the “ICRS gross cartilage score” value [2, 6] was 2.4+/−0.2 and the “decrease in total width of the groove lesion” value [2, 7] was 19%. The “decrease in width of the lesion with no viable cartilage” value (“decrease … with no viable cartilage” for short) [2, 7] was 69%, the “increase in central MFC thickness” value [2, 8] was 106% and the “increase in summed scores” value [2, 8] was 76%. The “increases (toward normal) in all scored parameters and defect fill percent” value [2, 8] was 61-97%, the “increase in total width of the groove lesion” value ([2]; microfracture, weekly for three weeks) was 5% and the “decrease … with no viable cartilage” value ([2]; microfracture, weekly for three weeks, non-significant) was 59%. For the same molecule, the “increase in central MFC thickness” value [2, 9] was 112%, the “increase in summed scores” value [2, 9] was 53% and the “increases (toward normal) in all scored parameters and defect fill percent” value [2, 9] was 44-69%. For the same molecule, the degeneration in sections ([2]; no microfracture, monthly for three months, all sections, generally focal) was “minimal to severe”, the “increase in other scores” value [2, 10] was 20-23% and the “increase in total width of the groove lesion” value [2, 10] was 36%. For the same molecule, the “decrease … with no viable cartilage” value [2, 11] was 94%, the “increase in central MFC thickness” value [2, 11] was 120% and the “increase in defect fill percentage” value [2, 11] was 48%. For the same molecule, the “increase in the defect fill score” value [2, 11] was 49%, the “sections with cartilage hypertrophy” value ([2]; rabbit, in vivo) was “All sections” and the “stimulation of proliferation vs control (medium, IL1α 10 ng/mL)” value ([3]; first experiment (direct treatment)) was 2.38 fold. For the same molecule, the “stimulation of proliferation vs control (medium, IL1α 10 ng/mL)” value ([3]; second experiment (6-hour delay)) was 2.44 fold, the “increase in cell numbers vs control (medium, no IL1α)” value ([3]; first experiment (direct treatment, FIG. 6A)) was 11.25 fold and the “increase in cell numbers vs control (medium, no IL1α)” value ([3]; second experiment (6-hour delay, FIG. 6B)) was 7.75 fold. For the same molecule, the “half-life in the joint” value [4] was “less than 24 hours”.
